The chains are these.
B1: Hemojuvelin (Homo sapiens), Q6ZVN8 (parent)
chain: MGEPGQSPSPRSSHGSPPTLSTLTLLLLLCGHAHSQCKILRCNAEYVSSTLSLRGGGSSGALRGGGGGGRGGGVGSGGLCRALRSYALCTRRTARTCRGDLAFHSAVHGIEDLMIQHNCSRQGPTAPPPPRGPALPGAGSGLPAPDPCDYEGRFSRLHGRPPGFLHCASFGDPHVRSFHHHFHTCRVQGAWPLLDNDFLFVQATSSPMALGANATATRKLTIIFKNMQECIDQKVYQAEVDNLPVAFEDGSINGGDRPGGSSLSIQTANPGNHVEIQAAYIGTTIIIRQTAGQLSFSIKVAEDVAMAFSAEQDLQLCVGGCPPSQRLSRSERNRRGAITIDTARRLCKEGLPVEDAYFHSCVFDVLISGDPNFTVAAQAALEDARAFLPDLEKLHLFPSDAGVPLSSATLLAPLLSGLFVLWLCIQ
partner: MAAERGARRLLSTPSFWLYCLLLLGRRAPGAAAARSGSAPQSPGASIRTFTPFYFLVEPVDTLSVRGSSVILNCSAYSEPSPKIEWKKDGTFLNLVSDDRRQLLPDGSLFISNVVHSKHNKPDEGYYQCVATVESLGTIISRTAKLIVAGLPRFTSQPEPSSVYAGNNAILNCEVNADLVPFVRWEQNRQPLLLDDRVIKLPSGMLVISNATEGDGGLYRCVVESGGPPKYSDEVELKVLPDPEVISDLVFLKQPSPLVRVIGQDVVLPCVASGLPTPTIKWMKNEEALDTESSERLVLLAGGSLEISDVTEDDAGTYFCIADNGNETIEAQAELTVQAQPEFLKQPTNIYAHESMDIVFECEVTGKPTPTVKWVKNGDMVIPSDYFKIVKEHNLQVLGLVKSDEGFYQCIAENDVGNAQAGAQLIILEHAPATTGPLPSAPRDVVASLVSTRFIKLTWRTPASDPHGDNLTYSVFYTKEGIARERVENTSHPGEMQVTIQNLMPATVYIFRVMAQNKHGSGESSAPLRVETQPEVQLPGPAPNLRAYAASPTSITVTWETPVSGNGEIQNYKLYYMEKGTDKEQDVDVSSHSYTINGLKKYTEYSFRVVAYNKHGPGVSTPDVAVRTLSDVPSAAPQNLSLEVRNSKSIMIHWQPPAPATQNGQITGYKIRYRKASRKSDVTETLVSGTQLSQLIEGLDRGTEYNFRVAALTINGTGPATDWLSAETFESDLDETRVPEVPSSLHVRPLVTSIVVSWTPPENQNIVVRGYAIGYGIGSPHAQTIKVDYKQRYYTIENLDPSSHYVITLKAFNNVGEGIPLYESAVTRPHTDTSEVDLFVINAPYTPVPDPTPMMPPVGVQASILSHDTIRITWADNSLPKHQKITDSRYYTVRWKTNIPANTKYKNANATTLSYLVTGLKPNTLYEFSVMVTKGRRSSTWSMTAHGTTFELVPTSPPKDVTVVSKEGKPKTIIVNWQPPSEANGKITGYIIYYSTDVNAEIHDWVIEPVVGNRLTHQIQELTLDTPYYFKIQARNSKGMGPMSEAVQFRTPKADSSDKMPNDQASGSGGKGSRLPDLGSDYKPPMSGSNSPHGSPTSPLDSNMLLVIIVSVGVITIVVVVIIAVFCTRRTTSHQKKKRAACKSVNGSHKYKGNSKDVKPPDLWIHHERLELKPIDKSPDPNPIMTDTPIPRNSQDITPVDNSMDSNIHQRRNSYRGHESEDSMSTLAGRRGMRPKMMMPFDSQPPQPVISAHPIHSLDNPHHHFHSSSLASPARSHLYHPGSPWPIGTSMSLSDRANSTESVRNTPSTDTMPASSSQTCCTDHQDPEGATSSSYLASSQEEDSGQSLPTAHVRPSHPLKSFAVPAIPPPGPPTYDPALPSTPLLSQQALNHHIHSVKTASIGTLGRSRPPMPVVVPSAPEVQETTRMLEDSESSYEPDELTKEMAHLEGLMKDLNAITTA

Here are results for one variant from IntAct's records for PubMed 18335997.

In the assay the parent is B1. As to conditions: with neo1_human NEO1, Q92859.
As to MGEPGQSPSPRSSHGSPPTLSTLTLLLLLCGHAHSQCKILRCNAEYVSSTLSLRGGGSSGALRGGGGGGRGGGVGSGGLCRALRSYALCTRRTARTCRGDLAFHSAVHGIEDLMIQHNCSRQGPTAPPPPRGPALPGAGSGLPAPDPCDYEGRFSRLHGRPPGFLHCASFGAPHVRSFHHHFHTCRVQGAWPLLDNDFLFVQATSSPMALGANATATRKLTIIFKNMQECIDQKVYQAEVDNLPVAFEDGSINGGDRPGGSSLSIQTANPGNHVEIQAAYIGTTIIIRQTAGQLSFSIKVAEDVAMAFSAEQDLQLCVGGCPPSQRLSRSERNRRGAITIDTARRLCKEGLPVEDAYFHSCVFDVLISGDPNFTVAAQAALEDARAFLPDLEKLHLFPSDAGVPLSSATLLAPLLSGLFVLWLCIQ [D172A], the “effect of a mutation on the interaction” value was “decreasing interaction strength”.
